From article PMC9366199, “Bivalent binding of p14ARF to MDM2 RING and acidic domains inhibits E3 ligase function” (Life Science Alliance, 2022)

Target: T1, UBE2D2^(S22R C85K)–Ub (UniProt P62837 2-147; P0CG48 1-76, S22R | C85K)
T1 construct: UBE2D2 with S22R and C85K, conjugated to ubiquitin; ubiquitin (Ub), conjugated to UBE2D2; also called UBE2D2–Ub; UBE2D2–Ub conjugate; source: purified as described previously (Buetow et al, 2015)
Test: SPR; Biacore T200, 25°C; GST-MDM2 variants captured on anti-GST nanobodies on CM-5 chips (about 500 RU), GST as control; UBE2D2–Ub as analyte, seven twofold dilutions from 100 μM; 25 mM Tris-HCl pH 7.6, 300 mM NaCl, 0.5 mM TCEP, 0.005% Tween-20; steady-state affinity
Conditions: both partners purified

Kd: 14.5 ± 1.4 µM
B1: GST-tagged MDM2^419-C containing the RING domain (domain or fragment, UniProt Q00987 419-491, looked up)
chain: TQDKEESVESSLPLNAIEPCVICQGRPKNGCIVHGKTGHLMACFTCAKKLKKRNKPCPVCRQPIQMIVLTYFP
notes: MDM2, residues 419 to the C-terminus (RING domain); TEV site between GST and MDM2 (modified pGEX-4T-1); the oligomeric state of the GST fusion was not measured here; also called GST-MDM2^RING; MDM2^RING; source: E. coli BL21-DE3; co-expressed with His-GFP-MDM2^220-334, in lysate (pull-down); not shown: GST, N-terminal, kept
